Test results published in article PMC3577912, “A Novel Role for Arabidopsis CBL1 in Affecting Plant Responses to Glucose and Gibberellin during Germination and Seedling Development” (PLoS ONE, 2013).

Molecular target: T1, His-AKINβ1 fusion protein (Arabidopsis thaliana, UniProt Q84VQ1 1-283)
T1 construct: AKINβ1, β regulatory subunit of SnRK1, Arabidopsis thaliana, AT5G21170; also called pET-AKINβ1; His-tagged AKINβ1
T1 sequence (looked up): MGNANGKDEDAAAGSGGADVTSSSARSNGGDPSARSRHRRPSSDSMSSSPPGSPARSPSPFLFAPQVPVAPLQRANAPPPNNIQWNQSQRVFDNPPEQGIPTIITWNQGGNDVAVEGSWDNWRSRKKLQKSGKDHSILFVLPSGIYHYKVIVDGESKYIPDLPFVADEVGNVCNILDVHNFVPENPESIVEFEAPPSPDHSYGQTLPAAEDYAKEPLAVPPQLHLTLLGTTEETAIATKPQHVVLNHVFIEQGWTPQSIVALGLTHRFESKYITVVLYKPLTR
Assay: pull-down; about 5 µg GST-CBL1 immobilised on Glutathione-Sepharose 4B beads, incubated with His-AKINβ1 overnight at 4°C, washed five times with ice-cold PBS, Western blot with anti-His antibody
Conditions: both partners purified

binding result: binds
B1: GST-CBL1 fusion protein (natural protein)
chain: not shown
notes: Calcineurin B-like protein 1 (CBL1), Arabidopsis thaliana, AT4G17615; also called pGEX-CBL1; glutathione S-transferase (GST)-CBL1; source: E. coli BL21 (DE3), purified (Glutathione Sepharose)
